According to patent US20060058224A1, “Methods of treating obesity with combination therapeutics” (priority 2004, published 2006):

What was measured:
[1] = system: DIO (Diet-Induced Obesity; AKR/J mice fed a high fat diet) mice; test: Effect on body weight in a mouse model of obesity (DIO mice), daily treatment Day 0 to Day 21; type: in vivo; settings: Axokine 0.03 mg/kg SC, phentermine 10.0 mg/kg IP; for loss of starting body weight: after 21 days of daily treatment, control lost 2%; for body weight change in words (FIG. 1): daily administration
Procedure: FIG. 1 is a graph of the change in body weight as a percentage of weight at Day 0 from Day 0 to Day 21 food intake (24 hours) over time (Days —1 to 21) for diet-induced obese (DIO) mice treated with 0.9% NaCl (4 μl/g, intraperitoneal (IP) injection) and placebo (4 μl/g subcutaneous (SC) injection; Group A: Control ═X); Axokine™ (0.03 mg/kg, SC; Group B=⋄); phentermine (10.0 mg/kg, IP; Group C=□); Axokine™ (0.03 mg/kg, SC) and phentermine (10.0 mg/kg, IP; Group D=□); and pair fed to group B=⋄).
(§1) A study was conducted to determine the effect of the combination of phentermine and Axokine™ on body weight and food intake in a mouse model of obesity. 30 DIO (Diet-Induced Obesity; AKR/J mice fed a high fat diet) mice were divided into 5 equal groups (n=6 per group). Four groups were treated daily in the afternoon starting on Day 0 as follows: Group A (control): 0.9% NaCl (4 μl/g, intraperitoneal (IP) injection) and placebo (4 μl/g subcutaneous (SC) injection); Group B: Axokine™ (0.03 mg/kg, SC); Group C: phentermine (10.0 mg/kg, IP); Group D: Axokine™ (0.03 mg/kg, SC)+phentermine (10.0 mg/kg, IP). The […] group, Group E was pair fed to Group B; each animal in this group received the average amount of food the Axokine™ treated animals consumed the previous day. This treatment paradigm continued until Day 21 (last injection on Day 20). […] Animals who were pair-fed to the Axokine™ group, lost weight at a rate similar to that of the Axokine™ group up to Day 11 of the study. After this time, their weight loss reached a plateau.

[2] = system: DIO (Diet-Induced Obesity; AKR/J mice fed a high fat diet) mice; test: 24 h food intake in DIO mice over the 21 day study; type: in vivo, mouse
Procedure: FIG. 2 is a graph of 24 h food intake monitored for the duration of the study for the DIO mice treated as described in the legend of FIG. 1.
as §1
After the second day of the study, control animals resumed their typical eating pattern, consuming approximately 4 g of food a day. Animals who received Axokine™ or were pair-fed, maintained this decreased food intake of about 2.75 g per day until Day 12 when they began to consume more food (3.5 g at the end of the study).

Molecule	loss of starting body weight [1]	body weight change in words (FIG. 1) [1]	food intake in words (FIG. 2) ([2]; daily treatment, Axokine 0.03 mg/kg SC, phentermine 10.0 mg/kg IP)	24 h food intake at the end of the study ([2]; Axokine 0.03 mg/kg SC daily, end of the study (Day 21)) [g]	24 h food intake ([2]; Axokine 0.03 mg/kg SC daily, from Day 2 until Day 12, control approximately 4 g a day)
CC(C)(N)Cc1ccccc1 [phentermine, reference compound]	about 15%	significant decrease in body weight relative to control animals	decreased food intake relative to control	–	–
Axokine™: modified ciliary neurotrophic factor (CNTF) molecule, hCNTF C17A Q63R Δ15 (SEQ ID NO:3 or SEQ ID NO:4) (protein) MAFTEHSPLTPHRRDLASRSIWLARKIRSDLTALTESYVKHQGLNKNINLDSADGMPVASTDRWSELTEAERLQENLQAYRTFHVLLARLLEDQQVHFTPTEGDFHQAIHTLLLQVAAFAYQIEELMILLEYKIPRNEADGMPINVGDGGLFEKKLWGLKVLQELSQWTVRSIHDLRFISSHQTG	approximately 19%	significant decrease in body weight relative to control animals	–	3.5	about 2.75 g per day
